To fix the notation:
T1: human LGR7/RXFP1 receptor (human, UniProt Q9HBX9 1-757)
T1 sequence (looked up): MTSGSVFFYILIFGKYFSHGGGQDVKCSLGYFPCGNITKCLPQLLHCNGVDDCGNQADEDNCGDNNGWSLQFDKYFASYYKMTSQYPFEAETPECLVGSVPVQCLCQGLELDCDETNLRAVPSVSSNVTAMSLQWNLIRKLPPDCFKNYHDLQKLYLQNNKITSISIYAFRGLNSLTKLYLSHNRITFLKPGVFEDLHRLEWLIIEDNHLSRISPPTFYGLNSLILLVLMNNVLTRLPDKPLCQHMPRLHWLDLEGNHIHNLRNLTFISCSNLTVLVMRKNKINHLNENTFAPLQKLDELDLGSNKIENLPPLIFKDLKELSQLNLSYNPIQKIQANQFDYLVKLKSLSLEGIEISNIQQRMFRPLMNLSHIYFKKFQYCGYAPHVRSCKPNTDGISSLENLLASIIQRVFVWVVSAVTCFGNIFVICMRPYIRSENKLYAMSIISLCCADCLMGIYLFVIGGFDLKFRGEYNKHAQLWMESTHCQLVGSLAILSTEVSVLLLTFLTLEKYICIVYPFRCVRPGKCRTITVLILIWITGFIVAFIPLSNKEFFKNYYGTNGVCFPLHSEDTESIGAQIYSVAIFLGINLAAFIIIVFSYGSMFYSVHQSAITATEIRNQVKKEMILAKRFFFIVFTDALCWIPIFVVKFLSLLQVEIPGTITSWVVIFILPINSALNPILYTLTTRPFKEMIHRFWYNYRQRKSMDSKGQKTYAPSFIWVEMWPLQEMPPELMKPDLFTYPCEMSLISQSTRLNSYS

B1: scR10 (ligand)
chain: EQKLISEEDLQLYSALANKCCHVGCTKRSLARFCGGGSGGGSGGGSGGSWMEEVIKLCGRELVRAQIAICGMSTWS
B2: scR15 (ligand)
chain: EQKLISEEDLDVLAGLSSSCCKWGCSKSEISSLCGGGSGGGSGRAAPYGVRLCGREFIRAVIFTCGGSRW
B3: scR11 (ligand)
chain: QLYSALANKCCHVGCTKRSLARFCGGGSGCGGSGSWMEEVIKLCGRELVRAQIAICGMSTWS
B4: scR12 (ligand)
chain: QLYSALANKCCHVGCTKRSLARFCGGGSGKGGSGSWMEEVIKLCGRELVRAQIAICGMSTWS
B5: scR14 (ligand)
chain: DVLAGLSSSCCKWGCSKSEISSLCGGGSGGGSGRAAPYGVRLCGREFIRAVIFTCGGSRW
modifications: ends and bridges not checked; cysteine pairing not given here
B6: human Relaxin 3 (ligand)
chain 1: DVLAGLSSSCCKWGCSKSEISSLC
chain 2: RAAPYGVRLCGREFIRAVIFTCGGSRW
B7: scR3 (ligand)
chain: EQKLISEEDLQLYSALANKCCHVGCTKRSLARFCGGGSGGGSWMEEVIKLCGRELVRAQIAICGMSTWSYPYDVPDYAHHHHHH
B8: scR9 (ligand)
chain: EQKLISEEDLQLYSALANKCCHVGCTKRSLARFCGGGSGGGSGGGSGSWMEEVIKLCGRELVRAQIAICGMSTWS
B9: human Relaxin 2 (ligand)
chain 1: QLYSALANKCCHVGCTKRSLARFC
chain 2: SWMEEVIKLCGRELVRAQIAICGMSTWS
B10: scR8 (ligand)
chain: EQKLISEEDLQLYSALANKCCHVGCTKRSLARFCGGGSGGGSGGGSSWMEEVIKLCGRELVRAQIAICGMSTWS
B11: scR7 (ligand)
chain: EQKLISEEDLQLYSALANKCCHVGCTKRSLARFCGGGSGGSWMEEVIKLCGRELVRAQIAICGMSTWS
B12: scR4 (ligand)
chain: EQKLISEEDLQLYSALANKCCHVGCTKRSLARFCGGGSGGGSGSWMEEVIKLCGRELVRAQIAICGMSTWSYPYDVPDYAHHHHHH
B13: scR5 (ligand)
chain: EQKLISEEDLQLYSALANKCCHVGCTKRSLARFCGGGSGGGSGGGSWMEEVIKLCGRELVRAQIAICGMSTWSYPYDVPDYAHHHHHH
B14: scR17 (ligand)
chain: EQKLISEEDLDVLAGLSSSCCKWGCSKSEISSLCGGGSGGGSGSWMEEVIKLCGRELVRAQIAICGMSTWS
B15: scR-Fc 9 (Fc fusion)
chain: QLYSALANKCCHVGCTKRSLARFCGGGSGGGSGSWMEEVIKLCGRELVRAQIAICGMSTWSGGSGGSPTCPTCHKCPVPELLGGPSVFIFPPKPKDILLISQNAKVTCVVVDVSEEEPDVQFSWFVNNVEVHTAQTQPREEQYNSTFRVVSALPIQHQDWMSGKEFKCKVNNKALPSPIEKTISKPKGLVRKPQVYVMGPPTEQLTEQTVSLTCLTSGFLPNDIGVEWTSNGHIEKNYKNTEPVMDSDGSFFMYSKLNVERSRWDSRAPFVCSVVHEGLHNHHVEKSISRPPGKHHHHHH
B16: scR-Var1 (ligand)
chain: QLYSALANKCCHVGCTKRSLARFCGGGSGGGSGSWMEEVIKLCGRELVRAQIAICGMSTWSGGSGCG
B17: scR-Fc 10 (Fc fusion)
chain: QLYSALANKCCHVGCTKRSLARFCGGGSGGGSGSWMEEVIKLCGRELVRAQIAICGMSTWSGGSGGSGGSPTCPTCHKCPVPELLGGPSVFIFPPKPKDILLISQNAKVTCVVVDVSEEEPDVQFSWFVNNVEVHTAQTQPREEQYNSTFRVVSALPIQHQDWMSGKEFKCKVNNKALPSPIEKTISKPKGLVRKPQVYVMGPPTEQLTEQTVSLTCLTSGFLPNDIGVEWTSNGHIEKNYKNTEPVMDSDGSFFMYSKLNVERSRWDSRAPFVCSVVHEGLHNHHVEKSISRPPGKHHHHHH
B18: scR-Var2 (ligand)
chain: GCGSGGQLYSALANKCCHVGCTKRSLARFCGGGSGGGSGSWMEEVIKLCGRELVRAQIAICGMSTWS
B19: scR-Fc 17 (Fc fusion)
chain: QLYSALANKCCHVGCTKRSLARFCGGGSGGGSGSWMEEVIKLCGRELVRAQIAICGMSTWSGSGSGSPTCPTCHKCPVPELLGGPSVFIFPPKPKDILLISQNAKVTCVVVDVSEEEPDVQFSWFVNNVEVHTAQTQPREEQYNSTFRVVSALPIQHQDWMSGKEFKCKVNNKALPSPIEKTISKPKGLVRKPQVYVMGPPTEQLTEQTVSLTCLTSGFLPNDIGVEWTSNGHIEKNYKNTEPVMDSDGSFFMYSKLNVERSRWDSRAPFVCSVVHEGLHNHHVEKSISRPPGK
B20: scR-Fc 13 (Fc fusion)
chain: HHHHHHPTCPTCHKCPVPELLGGPSVFIFPPKPKDILLISQNAKVTCVVVDVSEEEPDVQFSWFVNNVEVHTAQTQPREEQYNSTFRVVSALPIQHQDWMSGKEFKCKVNNKALPSPIEKTISKPKGLVRKPQVYVMGPPTEQLTEQTVSLTCLTSGFLPNDIGVEWTSNGHIEKNYKNTEPVMDSDGSFFMYSKLNVERSRWDSRAPFVCSVVHEGLHNHHVEKSISRPPGKGGSGGSGGSPQLYSALANKCCHVGCTKRSLARFCGGGSGGGSGSWMEEVIKLCGRELVRAQIAICGMSTWS
B21: scR-Fc 8 (Fc fusion)
chain: QLYSALANKCCHVGCTKRSLARFCGGGSGGGSGSWMEEVIKLCGRELVRAQIAICGMSTWSGGSPTCPTCHKCPVPELLGGPSVFIFPPKPKDILLISQNAKVTCVVVDVSEEEPDVQFSWFVNNVEVHTAQTQPREEQYNSTFRVVSALPIQHQDWMSGKEFKCKVNNKALPSPIEKTISKPKGLVRKPQVYVMGPPTEQLTEQTVSLTCLTSGFLPNDIGVEWTSNGHIEKNYKNTEPVMDSDGSFFMYSKLNVERSRWDSRAPFVCSVVHEGLHNHHVEKSISRPPGKHHHHHH
B22: scR-Fc 12 (Fc fusion)
chain: HHHHHHPTCPTCHKCPVPELLGGPSVFIFPPKPKDILLISQNAKVTCVVVDVSEEEPDVQFSWFVNNVEVHTAQTQPREEQYNSTFRVVSALPIQHQDWMSGKEFKCKVNNKALPSPIEKTISKPKGLVRKPQVYVMGPPTEQLTEQTVSLTCLTSGFLPNDIGVEWTSNGHIEKNYKNTEPVMDSDGSFFMYSKLNVERSRWDSRAPFVCSVVHEGLHNHHVEKSISRPPGKGGSGGSPQLYSALANKCCHVGCTKRSLARFCGGGSGGGSGSWMEEVIKLCGRELVRAQIAICGMSTWS
B23: scR-Fc 11 (Fc fusion)
chain: HHHHHHPTCPTCHKCPVPELLGGPSVFIFPPKPKDILLISQNAKVTCVVVDVSEEEPDVQFSWFVNNVEVHTAQTQPREEQYNSTFRVVSALPIQHQDWMSGKEFKCKVNNKALPSPIEKTISKPKGLVRKPQVYVMGPPTEQLTEQTVSLTCLTSGFLPNDIGVEWTSNGHIEKNYKNTEPVMDSDGSFFMYSKLNVERSRWDSRAPFVCSVVHEGLHNHHVEKSISRPPGKGGSPQLYSALANKCCHVGCTKRSLARFCGGGSGGGSGSWMEEVIKLCGRELVRAQIAICGMSTWS

The record followed here is US20140187491A1 (Bayer, published 2014).

Ends that are not written are not given here.

One assay has as its target T1, human LGR7/RXFP1 receptor. Kind of assay: cell-based or functional assay.
For B1, the “EC50 (M), CRE-luciferase reporter in CHO-CRE-LGR7 cells” value (“EC50 (M), CRE-luciferase reporter” for short) came out at 4.4e-08 M.

Regarding B2, the “EC50 (M), CRE-luciferase reporter” value was determined as 6.2e-10 M.

B3: the “EC50 (M), CRE-luciferase reporter” value stood at 2.5e-08 M.

B4: the “EC50 (M), CRE-luciferase reporter” value is 3.6e-08 M.

On to B5, for which the “EC50 (M), CRE-luciferase reporter” value was 5.9e-10 M.

In the case of B6, the “EC50 (M), CRE-luciferase reporter” value was determined as 2.3e-09 M.

B7: the “EC50 (M), CRE-luciferase reporter” value is 7.7e-11 M.

For the molecule B8, the “EC50 (M), CRE-luciferase reporter” value is 1.1e-07 M.

For the molecule B9, the “EC50 (M), CRE-luciferase reporter” value turned out to be 2.6e-11 M.

Regarding B10, the “EC50 (M), CRE-luciferase reporter” value worked out at 2.4e-08 M.

Consider B11, for which the “EC50 (M), CRE-luciferase reporter” value was determined as 5.3e-08 M.

In the case of B12, the “EC50 (M), CRE-luciferase reporter” value turned out to be 3.4e-11 M.

On to B13, for which the “EC50 (M), CRE-luciferase reporter” value is 3.7e-11 M.

On to B14, for which the “EC50 (M), CRE-luciferase reporter” value was 1.3e-08 M.

The target of a further assay is T1, human LGR7/RXFP1 receptor. Kind of assay: cell-based or functional assay. The source holds these as a separate data set.
On to B15, for which the “EC50 (M), CRE-luciferase reporter” value turned out to be 9.9e-09 M.

With B16, the “EC50 (M), CRE-luciferase reporter” value is 1.1e-07 M.

In the case of B17, the “EC50 (M), CRE-luciferase reporter” value came to 4.8e-09 M.

Turning to B18, the “EC50 (M), CRE-luciferase reporter” value was 4.2e-08 M.

As for B19, the “EC50 (M), CRE-luciferase reporter” value was 2.5e-09 M.

Regarding B20, the “EC50 (M), CRE-luciferase reporter” value was determined as 8.9e-10 M.

Turning to B9, the “EC50 (M), CRE-luciferase reporter” value is 3.5e-11 M.

Regarding B21, the “EC50 (M), CRE-luciferase reporter” value is 7.2e-09 M.

Turning to B22, the “EC50 (M), CRE-luciferase reporter” value is 9.5e-10 M.

In the case of B23, the “EC50 (M), CRE-luciferase reporter” value was determined as 1.2e-09 M.
